Where two headings read alike, the source gives them in different places. Residues, ends and D or L forms follow the SMILES beside them. *: point of attachment. X1 = CC1(C)C(/C=C/C2=C(Oc3ccc(S(=O)(=O)O)cc3)C(=C/C=C3/N(CCCCS(=O)(=O)[O-])c4ccc(S(=O)(=O)O)cc4C3(C)C)/CCC2)=[N+](CCCCCC(=O)NCCN2C(=O)CC(*)C2=O)c2ccc(S(=O)(=O)O)cc21
Columns and labels:
[1] = In vivo photoacoustic imaging of peptide uptake in xenograft breast tumors; set-up: species or system human xenograft, nude mouse; details: female, nude athymic (002019 Foxn1 <nu>), mouse, in vivo, iv, 75 nmol per mouse, BT474 and MDA-MB-231 tumors, tail vein, 300 μM in 250 μL
Procedure: (§1) BT474 cells were diluted in growth factor reduced (GFR) Matrigel Matrix (Corning), and injected into one flank of female nude athymic mice (002019 Foxn1 , Jackson Laboratory) at 4–6 weeks of age with weight between 20–25 grams. A 0.18 mg 17-β-Estradiol pellet (#SE-121, Innovative Research of America) with 60 day release form was placed subcutaneously around the neck 1 day prior to tumor implantation to stimulate tumor growth. ∼1 × 10^7 cells were implanted for each tumor, and 2–3 implantations were performed in each mouse. MDA-MB-231 tumors were generated similarly except without Matrigel Matrix injection and only one implantation was performed in each mouse. Tumor size was monitored by ultrasound and MRI weekly. For all in vivo animal experiments, anesthesia was induced and maintained with inhaled isoflurane mixed with oxygen at a concentration of 2–4% at a flow rate of ~0.5 L/min via a nose cone.
(§2) We used photoacoustic tomography (Nexus128, Endra Inc) to measure peptide uptake by the human xenograft breast tumors. This system provides laser excitation with 7 ns pulses, 25 mJ/pulse, […] repetition rate, and tunable wavelength from 680 nm to 950 nm. The acoustic signal was collected with 128 unfocused (3 mm diameter) ultrasound transducers with 5 MHz center frequency assembled in a hemispherical bowl in a helical pattern. Water was added to the bowl to transmit the acoustic signal. We collected photoacoustic images with 120 views at 60 pulses/view. Each image covered a volume of 25 × 25 × 25 mm^3 with a voxel size of 280 μm^3, and each dataset required ~6–7 min for acquisition.
(§3) For imaging, the animals were placed inside a tray with the tumor positioned inside a water-filled dimple that couples the ultrasound signal. KSP*-IR800 was injected via tail vein at a concentration of 300 μM in a volume of 250 μL. Photoacoustic images were acquired at 0, 1, 2, 3, 6, 12, and 24 hours post-injection using λex = 780 nm excitation. PPS*-IR800 was administered in the same animal 48 hours later for control after the target peptide cleared as defined by T/B ratio returning to ∼1. IRDye800 (fluorophore without peptide) at the same concentration was also administered for control.
(§4) After completion of imaging, 3D images were reconstructed using data acquired from all 128 transducers at each view using a back-projection algorithm to correct for variations in laser intensity from pulse-to-pulse and small changes in temperature that affect the velocity of acoustic waves in water. The reconstructed raw data was analyzed using Osirix 6.5.2 software (Pixmeo) to generate a maximum intensity projection (MIP) image. To calculate the T/B ratio, the mean photoacoustic signal was measured from the tumor (target) using a circular ROI function on 2D MIP images. For background, we used the same ROI as that for the tumor prior to injection of peptide. The adjacent annulus with same area was used measure the background.

[2] = test system: BT474 and MDA-MB-231 human xenograft breast tumors in nude mice; experiment: as above; set-up: species or system nude mouse
Procedure: as §1, §2, §3, §4

[3] = test system: tumor and internal organs of tumor-bearing mouse; experiment: Peptide biodistribution ex vivo; assay type: in vivo; details: n = 5 mice
Source text: (§5) High peptide uptake seen from the kidneys is consistent with renal clearance.
Figure 5 Peptide biodistribution. […] Strong signal from kidneys support renal clearance. (C) Quantified fluorescence intensities are shown for tumor and other organs from n = 5 mice. We fit a two-way ANOVA model to log-transformed data with terms for 11 tissues and 5 mice and tested each tissue mean against the mean for tumors. Kidney had 1.7 times more intense signals on average (P = 0.03), while all other tissues had at least 2-fold lower signals than tumor on average (P = 0.008 for lung was the largest P-value).

[4] = Histology (H&E) for acute toxicity; assay type: in vivo, mouse; details: mice euthanized after imaging; KSP*-IR800 by tail vein
Source text: as §5

[5] = Sprague-Dawley rats; cited from earlier work
Source text: We validated specific binding of this peptide labeled with IRDye800CW to ErbB2 using siRNA knockdown and competition with cells in vitro and with immunohistochemistry and immunofluorescence studies on tissue specimens using known monoclonal anti-ErbB2 antibodies. Also, we have previously used peptides labeled with fluorescein isothiocyanate (FITC) in human clinical studies in hollow organs[25],[26]. We used IRDye800CW to image breast can ...

SMILES | time after injection ([1]; read-out: time to return to baseline levels (T/B ratio)) | time after injection ([1]; λex = 780 nm, read-out: time of peak peptide uptake (T/B ratio)) | time of rapid tumor uptake ([2]; photoacoustic tomography, systemic administration, nude mice (Discussion)) | T/B ratio at ∼24 hours (clearance) ([2]; ∼24 hours post-injection, tail vein, 300 μM in 250 μL) | kidney signal relative to tumor (times more intense) ([3]; 1 hour after injection, two-way ANOVA, P = 0.03) | signal in all other tissues than kidney, fold lower than tumor ([3]; liver, heart, stomach, brain, lung, spleen, small intestine, cecum, colon, 1 hour after injection, largest P = 0.008 (lung)) | fluorescence intensity from tumor compared with other organs ([3]; qualitative) | acute toxicity on histology (H&E) [4] | time of peak signal ([2]; IRDye800 without peptide, same concentration, post-injection) | photoacoustic tumor signal of fluorophore alone ([2]; IRDye800 without peptide, same concentration, qualitative) | intravenous dose up to which safety was published [5]
CC1(C)C(/C=C/C2=C(Oc3ccc(S(=O)(=O)O)cc3)C(=C/C=C3/N(CCCCS(=O)(=O)[O-])c4ccc(S(=O)(=O)O)cc4C3(C)C)/CCC2)=[N+](CCCCCC(=O)NCCN2C(=O)CC(SC[C@H](NC(=O)[C@H](CO)NC(=O)CNC(=O)CNC(=O)CNC(=O)[C@H](Cc3ccccc3)NC(=O)[C@H](CCCNC(=N)N)NC(=O)[C@@H]3CCCN3C(=O)[C@H](CC(N)=O)NC(=O)[C@@H]3CCCN3C(=O)[C@H](CO)NC(=O)[C@@H](N)CCCCN)C(N)=O)C2=O)c2ccc(S(=O)(=O)O)cc21 (some centres unmarked) [KSP*-IR800] (H-KSPNPRFGGGSC(X1)-NH2) | ~24 | 1 | ~1 h | ~1 | 1.7 times | at least 2 fold | significantly greater fluorescence intensity from the tumor | no acute toxicity | – | – | –
CC1(C)C(/C=C/C2=C(Oc3ccc(S(=O)(=O)O)cc3)C(=C/C=C3/N(CCCCS(=O)(=O)O)c4ccc(S(=O)(=O)[O-])cc4C3(C)C)/CCC2)=[N+](CCCCCC(=O)O)c2ccc(S(=O)(=O)O)cc21 [IRDye800, reference compound] | – | – | – | – | – | – | – | – | 2 h | significantly lower signal | up to 20 mg/kg
